The results in this text go back to US8119117.

The assay addresses CD40 receptor on dendritic cells (mouse) (UniProt P27512). Briefly: cell-based or functional assay.
UniProt P27512, sequence (P27512 20-289): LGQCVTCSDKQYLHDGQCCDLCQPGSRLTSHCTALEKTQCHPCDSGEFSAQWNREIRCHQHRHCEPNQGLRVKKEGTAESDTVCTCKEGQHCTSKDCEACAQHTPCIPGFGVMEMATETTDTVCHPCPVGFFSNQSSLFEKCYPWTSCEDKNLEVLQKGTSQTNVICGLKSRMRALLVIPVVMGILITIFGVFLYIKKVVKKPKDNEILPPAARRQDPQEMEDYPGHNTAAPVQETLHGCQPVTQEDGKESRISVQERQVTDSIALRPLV

Take “E7-ΔCtΔTmCD40L fusion protein (secreted; HPV type 16 E7, 10 amino acid linker, murine CD40 ligand residues 52-260) (from UniProt P03129 1-98; P27548 52-260)”: the IFN-γ released by DCs exposed to the vector (ELISA), first 24 hours is 335 pg; the IL-12 produced by DCs exposed to the vector (ELISA), 24 h (pg/2×10^5 cell/ml/24 h) was found to be 18; the IL-12 produced by DCs exposed to the vector (ELISA), 48 h (pg/2×10^5 cell/ml/48 h) worked out at 88.
